From patent US12698494
Positions count from the first letter of the chain named. Numbers in names are those of the source.

B1: ADAMTS13 variant NGLY3 + R568A/Y665A + L591A/R636A/L637A/L668A (protein)
chain: AAGGILHLELLVAVGPDVFQAHQEDTERYVLTNLNIGAELLRDPSLGAQFRVHLVKMVILTEPEGAPNITANLTSSLLSVCGWSQTINPEDDTDPGHADLVLYITRFDLELPDGNRQVRGVTQLGGACSPTWSCLITEDTGFDLGVTIAHEIGHSFGLEHDGAPGSGCGPSGHVMASDGAAPRAGLAWSPCSRRQLLSLLSAGRARCVWDPPRPQPGSAGHPPDAQPGLYYSANEQCRVAFGPKAVACTFAREHLDMCQALSCHTDPLDQSSCSRLLVPLLDGTECGVEKWCSKGRCRSLVELTPIAAVHGRWSSWGPRSPCSRSCGGGVVTRRRQCNNPRPAFGGRACVGADLQAEMCNTQACEKTQLEFMSQQCARTDGQPLRSSPGGASFYHWGAAVPHSQGDALCRHMCRAIGESFIMKRGDSFLDGTRCMPSGPREDGTLSLCVSGSCRTFGCDGRMDSQQVWDRCQVCGGDNSTCSPRKGSFTAGRAAEYVTFLTVTPNLTSVYIANHRPAFTHLAVRIGGRYVVAGNMSISPNTTYPSLLEDGRVEYRVALTEDAAPRLEEIRIWGPLQEDADIQVYRRYGEEAGNATRPDITFTYFQPKPRQAWVWAAVRGPCSVSCGAGLRWVNYSCLDQARKELVETVQCQGSQQPPAWPEACVLEPCPPYWAVGDFGPCSASCGGGLRERPVRCVEAQGSLLKTLPPARCRAGAQQPAVALETCNPQPCPARWEVSEPSSCTSAGGAGLALENETCVPGADGLEAPVTEGPGSVDEKLPAPEPCVGMSCPPGWGHLDATSAGEKAPSPWGSIRTGAQAAHVWTPAAGSCSVSCGRGLMELRFLCMDSALRVPVQEELCGLASKPGSRREVCQAVPCPARWQYKLAACSVSCGRGVVRRILYCARAHGEDDGEEILLDTQCQGLPRPEPQEACSLEPCPPRWKVMSLGPCSASCGLGTARRSVACVQLDQGQDVEVDEAACAALVRPEASVPCLIADCTYRWHVGTWMECSVSCGDGIQRRRDTCLGPQAQAPVPADFCQHLPKPVTVRGCWAGPCVGQGTPSLVPHEEAAAPGRTTATPAGASLEWSQARGLLFSPAPQPRRLLPGPQENSVQSSACGRQHLEPTGTIDMRGPGQADCAVAIGRPLGEVVTLRVLESSLNCSAGDMLLLWGRLTWRKMCRKLLDMTFSSKTNTLVVRQRCGRPGGGVLLRYGSQLAPETFYRECDMQLFGPWGEIVSPSLSPATSNAGGCRLFINVAPHARIAIHALATNMGAGTEGANASYILIRDTHSLRTTAFHGQQVLYWESESSQAEMEFSEGFLKAQASLRGQYWTLQSWVPEMQDPQSWKGKEGT
B2: Full-length ADAMTS13 variant NGLY5 (635DRLPR639 to 635DNLSR639) (protein)
chain: AAGGILHLELLVAVGPDVFQAHQEDTERYVLTNLNIGAELLRDPSLGAQFRVHLVKMVILTEPEGAPNITANLTSSLLSVCGWSQTINPEDDTDPGHADLVLYITRFDLELPDGNRQVRGVTQLGGACSPTWSCLITEDTGFDLGVTIAHEIGHSFGLEHDGAPGSGCGPSGHVMASDGAAPRAGLAWSPCSRRQLLSLLSAGRARCVWDPPRPQPGSAGHPPDAQPGLYYSANEQCRVAFGPKAVACTFAREHLDMCQALSCHTDPLDQSSCSRLLVPLLDGTECGVEKWCSKGRCRSLVELTPIAAVHGRWSSWGPRSPCSRSCGGGVVTRRRQCNNPRPAFGGRACVGADLQAEMCNTQACEKTQLEFMSQQCARTDGQPLRSSPGGASFYHWGAAVPHSQGDALCRHMCRAIGESFIMKRGDSFLDGTRCMPSGPREDGTLSLCVSGSCRTFGCDGRMDSQQVWDRCQVCGGDNSTCSPRKGSFTAGRAREYVTFLTVTPNLTSVYIANHRPLFTHLAVRIGGRYVVAGKMSISPNTTYPSLLEDGRVEYRVALTEDNLSRLEEIRIWGPLQEDADIQVYRRYGEEYGNLTRPDITFTYFQPKPRQAWVWAAVRGPCSVSCGAGLRWVNYSCLDQARKELVETVQCQGSQQPPAWPEACVLEPCPPYWAVGDFGPCSASCGGGLRERPVRCVEAQGSLLKTLPPARCRAGAQQPAVALETCNPQPCPARWEVSEPSSCTSAGGAGLALENETCVPGADGLEAPVTEGPGSVDEKLPAPEPCVGMSCPPGWGHLDATSAGEKAPSPWGSIRTGAQAAHVWTPAAGSCSVSCGRGLMELRFLCMDSALRVPVQEELCGLASKPGSRREVCQAVPCPARWQYKLAACSVSCGRGVVRRILYCARAHGEDDGEEILLDTQCQGLPRPEPQEACSLEPCPPRWKVMSLGPCSASCGLGTARRSVACVQLDQGQDVEVDEAACAALVRPEASVPCLIADCTYRWHVGTWMECSVSCGDGIQRRRDTCLGPQAQAPVPADFCQHLPKPVTVRGCWAGPCVGQGTPSLVPHEEAAAPGRTTATPAGASLEWSQARGLLFSPAPQPRRLLPGPQENSVQSSACGRQHLEPTGTIDMRGPGQADCAVAIGRPLGEVVTLRVLESSLNCSAGDMLLLWGRLTWRKMCRKLLDMTFSSKTNTLVVRQRCGRPGGGVLLRYGSQLAPETFYRECDMQLFGPWGEIVSPSLSPATSNAGGCRLFINVAPHARIAIHALATNMGAGTEGANASYILIRDTHSLRTTAFHGQQVLYWESESSQAEMEFSEGFLKAQASLRGQYWTLQSWVPEMQDPQSWKGKEGTHHHHHH
B3: Full-length ADAMTS13 variant NGLY1 (567AREYV571 to 567ANETV571) (protein)
chain: B2 chain with R494N, Y496T, N562R, S564P
B4: Full-length ADAMTS13 variant NGLY2 (590PLFTH594 to 590PNFTH594) (protein)
chain: B2 chain with L517N, N562R, S564P

Experiments:
[1] = biological target: T1, FRETS-VWF73 fluorogenic substrate, P04275
T1 chain: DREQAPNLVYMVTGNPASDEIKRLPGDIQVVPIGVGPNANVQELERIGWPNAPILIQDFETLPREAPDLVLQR

[2] = biological target: Von Willebrand Factor (VWF) multimers, P04275

Protein	Activity level (% relative to wild type ADAMTS13) VWFFRETS73 (% relative to wild type ADAMTS13) [1]	VWF multimer assay (urea-denatured recombinant VWF) [2]	FRETS-VWF73 activity relative to wild-type ADAMTS13 [1]
B1	40		
B2		a reduced VWF processing activity was observed for NGLY2 and NGLY5	The activity of NGLY5 was slightly reduced when compared to wild type ADAMTS13
B3			The ability of NGLY1, 2, 3 and 4 was similar or higher when compared to wild-type ADAMTS13
B4		a reduced VWF processing activity was observed for NGLY2 and NGLY5	The ability of NGLY1, 2, 3 and 4 was similar or higher when compared to wild-type ADAMTS13
